Laboratory results taken from paper PMC9313104 (Biomedicines, 2022).
Entries after “also recorded” stand apart in the source; their conditions may differ. Read-outs that look alike come from different tables or passages of the source.

How the values were obtained:
duck Na,K-ATPase [1] = biological target: T1, duck Na,K-ATPase (Anas platyrhynchos, UniProt Q7ZYV1); type: binding; conditions: 25 °C, pH 7.5, unit not given
Method: (§1) Purified preparation of Na,K-ATPase was obtained from duck salt glands as described elsewhere.
(§2) Experiments were carried out at 25 °C in four buffers, as described elsewhere: (E2P buffer) 10 mM imidazole, 3 mMTris/Pi, 1 mM EDTA, 3 mM MgCl2, 0.1 mM DTT, pH 7.5; (E1/E2 buffer) 10 mM imidazole, 130 mM NaCl, 20 mM KCl, 3 mM MgCl2, 0.1 mM DTT, pH 7.5; (E1 buffer) 10 mM imidazole, 1 mM EDTA, 3 mM NaCl, 0.1 mM DTT, pH 7.5; (E2 buffer) 10 mM imidazole, 1 mM EDTA, 3 mM KCl, and 0.1 mM DTT, pH 7,5. […] Aliquots (2.6 μL) of ligands were injected into a 0.24 mL cell containing the protein solution to achieve a complete binding isotherm. […] Equivalent amounts of DMSO was added to protein solutions to avoid thermal effects of dissolution.
(§3) The effective heat of binding was obtained by subtracting the heat of dilution from the heat of reaction. MicroCal Origin software was used to fit isothermal titration curves. […] The Gibbs energy and enthalpy changes […] were estimated according to the equations: ∆G = −RT lnKa and ∆G = ∆H − T∆S.

Na,K-ATPase [2] = system: Na,K-ATPase; set-up: method as in 2 sources, one per row (each row's own in cited_ref): ref [10],[18] = [10]; PMID 30210292; doi:10.3389/fnmol.2018.00302; 10. Barykin E.P. Petrushanko I.Y. Kozin S.A. Telegin G.B. Chernov A.S. Lopina O.D. Radko S.P. Mitkevich V.A. Makarov A.A. Phosphorylation of the Amyloid-Beta Peptide Inhibits Zinc-Dependent Aggregatio || [18]; PMID 27296892; doi:10.1038/srep27738; 18. Petrushanko I.Y. Mitkevich V.A. Anashkina A.A. Adzhubei A.A. Burnysheva K.M. Lakunina V.A. Kamanina Y.V. Dergousova E.A. Lopina O.D. Ogunshola O.O. Direct Interaction of Beta-Amyloid with Na,K-ATP ||| ref [39] = [39]; PMID 26297827; doi:10.1016/j.febslet.2015.08.011; 39. Klimanova E.A. Petrushanko I.Y. Mitkevich V.A. Anashkina A.A. Orlov S.N. Makarov A.A. Lopina O.D. Binding of Ouabain and Marinobufagenin Leads to Different Structural Changes in Na,K-ATPase and De; conditions: ref [39]; cited from earlier work
Na,K-ATPase [3] = conditions: ref [18]; cited from earlier work
Text: (§4) Here we study the binding interface of Aβ with Na,K-ATPase. Na,K-ATPase creates a sodium/potassium gradient, and inhibition of pump activity by Aβ leads to impairment of electrotonic properties of neurons.

[4] = system: neuroblastoma cells SH-SY5Y; conditions: ref [18]; cited from earlier work
Text: as §4

duck Na,K-ATPase [5] = biological target: T1, duck Na,K-ATPase; experiment: Isothermal titration calorimetry (MicroCal iTC200), Aβ42 binding to Na,K-ATPase in different states; conditions: 25 °C; for T∆S, entropy variation: calculated from ∆G = ∆H − T∆S; for ∆H, enthalpy variation: three to four measurements, SD did not exceed ±10%
Method: Briefly, the peptide was dissolved in hexafluoroisopropanol (Fluka), dried, and stored at −80 °C. Before the experiment, the peptide was dissolved in DMSO for 1 h and then diluted in the buffer solution.
as §1, §2, §3

[6] = hexafluoroisopropanol, dried, DMSO for 1 h, diluted in buffer; ref [18]; cited from earlier work
Method: Aβ42 peptide was synthesized by Biopeptide. […] Briefly, the peptide was dissolved in hexafluoroisopropanol (Fluka), dried, and stored at −80 °C. Before the experiment, the peptide was dissolved in DMSO for 1 h and then diluted in the buffer solution.

[7] = Na,K-ATPase in complex with Aβ42
[8] = enzyme in E2P conformation (without Aβ42)
[9] = OBN state (26 µM ouabain), pH 7.5

Molecule	T∆S (duck Na,K-ATPase [1]; [7])	∆H (duck Na,K-ATPase [1]; [7])	T∆S (duck Na,K-ATPase [1]; [8])	∆H (duck Na,K-ATPase [1]; [8])	Na,K-ATPase conformation bound (Na,K-ATPase [2])	effect of complex formation on enzyme hydrolytic activity (Na,K-ATPase [3])	effect of exogenous Aβ42 on enzyme transport and hydrolytic activity [4]	T∆S, entropy variation (duck Na,K-ATPase [5]; E1/E2 state, pH 7.5) [kcal/mol]	∆H, enthalpy variation (duck Na,K-ATPase [5]; E1/E2 state, pH 7.5) [kcal/mol]	T∆S, entropy variation (duck Na,K-ATPase [5]; E1 state, pH 7.5) [kcal/mol]	∆H, enthalpy variation (duck Na,K-ATPase [5]; E1 state, pH 7.5) [kcal/mol]	T∆S, entropy variation (duck Na,K-ATPase [5]; E2P state, pH 7.5) [kcal/mol]	∆H, enthalpy variation (duck Na,K-ATPase [5]; E2P state, pH 7.5) [kcal/mol]	Ka, affinity constant (duck Na,K-ATPase [5]; E2 state, 10 mM imidazole, 1 mM EDTA, 3 mM KCl, 0.1 mM DTT, pH 7.5, measured three to four times, SD did not exceed ±20%) [M⁻¹]	T∆S, entropy variation (duck Na,K-ATPase [5]; E2 state, pH 7.5) [kcal/mol]	∆H, enthalpy variation (duck Na,K-ATPase [5]; E2 state, pH 7.5) [kcal/mol]	T∆S, entropy variation (duck Na,K-ATPase [5]; [9]) [kcal/mol]	∆H, enthalpy variation (duck Na,K-ATPase [5]; [9]) [kcal/mol]	Aβ42 binding to Na,K-ATPase in complex with ouabain compared with free enzyme (duck Na,K-ATPase [5]; OBN state, sequential titration with ouabain then Aβ42 in E2P buffer)	form present in the solution [6]
C[C@@H]1O[C@@H](O[C@H]2C[C@@H](O)[C@]3(CO)[C@H]4[C@H](O)C[C@]5(C)[C@@H](C6=CC(=O)OC6)CC[C@]5(O)[C@@H]4CC[C@]3(O)C2)[C@H](O)[C@H](O)[C@H]1O [ouabain]	−10.8	−20.2 ± 0.7	−4.2	−13.7 ± 0.2	binds predominantly to the E2P conformation															
Aβ42: Aβ42 peptide was synthesized by Biopeptide						dose-dependent inhibition of enzyme hydrolytic activity	pronounced decrease in enzyme transport and hydrolytic activity	5.48	-2.54	6.02	-1.54	6.19	-1.59	490000	5.55	-2.21	6.87	-1.21	in the same way as the free enzyme; also recorded: did not change	mainly in the monomeric form
